Target: the molecule itself
Assay: crystal structure

B1: human CaMKIIα hub domain containing six mutations (6x Hub) (domain or fragment, UniProt Q9UQM7 345-475, looked up)
chain: VRKQEIIKVNQQLIEAISNGDFESYTKMCDPGMTAFEPEALGNLVEGLDFHRFYFENLWSRNSKPVHNTMLNPHIHLMGDESACIAYIRITQYLDAGGIPRTAQSEETRVWHRRDGKWQHVHMHRSGAPSV
Question: Which “stoichiometry N” value does the source give for B1 here?
Answer: 14
